From paper PMC3562449 (Nature Communications, 2013) come the findings set out here.

Data set [1] concerns the target BASS-NoC double mutant with Cys at residues 671 and 788 (Drosophila) (UniProt P46863). The data set is described as follows: SEC + other: sucrose density gradient centrifugation.
Data set [2] has as its target BASS-NoC double mutant with Cys at residues 671 and 791 (Drosophila) (UniProt P46863). Described as above.
Data set [3] deals with BASS-NoC single mutant with Cys at residue 671 (Drosophila) (UniProt P46863). Described as above.
The target in data set [4] is BASS-NoC single mutant with Cys at residue 788 (Drosophila) (UniProt P46863). The data set is described as above.
For data set [5], the target named is BASS-NoC single mutant with Cys at residue 791 (Drosophila) (UniProt P46863). The description is as above.
Data set [6] concerns the molecule itself. The data set is described as follows: SEC.
Data set [7] concerns the molecule itself. The data set is described as follows: native MS.

By stoichiometry N is commonly meant a count of units in the complex or per binding partner.

Values joined by “and” are separate entries in the source; they are usually repeats but may differ in a detail not shown here. Identical values can stand only once.

As for “BASS-NoC double mutant with Cys at residues 671 and 788 (from UniProt P46863 631-920) (domain or fragment)”, the stoichiometry N in data set [1] is 4.
For “BASS-NoC double mutant with Cys at residues 671 and 791 (from UniProt P46863 631-920) (domain or fragment)”, the stoichiometry N in data set [2] came out at 4.
For “BASS-NoC single mutant with Cys at residue 671 (from UniProt P46863 631-920) (domain or fragment)”, the stoichiometry N in data set [3] was found to be 4.
For “BASS-NoC single mutant with Cys at residue 788 (from UniProt P46863 631-920) (domain or fragment)”, the stoichiometry N in data set [4] stood at 4.
Turning to “BASS-NoC single mutant with Cys at residue 791 (from UniProt P46863 631-920) (domain or fragment)”, the stoichiometry N in data set [5] came to 4.

B1: BASS 631–790 (domain or fragment, Drosophila, UniProt P46863 631-790, looked up)
chain: EQMQQQQLLMSKEIQTNLQVIEENNQRHKAMLDSMQEKFATIIDSSLQSVEEHAKQMHKKLEQLGAMSLPDAEELQNLQEELANERALAQQEDALLESMMMQMEQIKNLRSKNSISMSVHLNKMEESRLTRNHRIDDIKSGIQDYQKLGIEASQSAQAEL
As for B1, in data set [6], the “stoichiometry N” value is 4 and 2.

B2: BASS (bipolar assembly) domain of kinesin-5, residues 631–920 (domain or fragment, Drosophila, UniProt P46863 631-920, looked up)
chain: EQMQQQQLLMSKEIQTNLQVIEENNQRHKAMLDSMQEKFATIIDSSLQSVEEHAKQMHKKLEQLGAMSLPDAEELQNLQEELANERALAQQEDALLESMMMQMEQIKNLRSKNSISMSVHLNKMEESRLTRNHRIDDIKSGIQDYQKLGIEASQSAQAELTSQMEAGMLCLDQGVANCSMLQVHMKNLNQKYEKETNENVGSVRVHHNQVEIICQESKQQLEAVQEKTEVNLEQMVDARQQLITEDRQRFIGHATVATDLVQESNRQFSEHAEHQRQQLQICEQELVRFQ
For the molecule B2, the “stoichiometry N” value in data set [7] is 2 and 4.

B3: BASS-core (BASS 631–835) (domain or fragment, Drosophila, UniProt P46863 631-835, looked up)
chain: EQMQQQQLLMSKEIQTNLQVIEENNQRHKAMLDSMQEKFATIIDSSLQSVEEHAKQMHKKLEQLGAMSLPDAEELQNLQEELANERALAQQEDALLESMMMQMEQIKNLRSKNSISMSVHLNKMEESRLTRNHRIDDIKSGIQDYQKLGIEASQSAQAELTSQMEAGMLCLDQGVANCSMLQVHMKNLNQKYEKETNENVGSVRV
Turning to B3, in data set [6], the “stoichiometry N” value was 4.
